B1: Nb394 (VHH)
VHH: QVQLVESGGGLVQAGGSLRLSCAASGRTFSVSNMGWFRQAPGKERVFVAAIGWTTGSTYYADSVKGRFTISRDNTKNTVYLQMNSLKPEDTAVYRCAARRRGYSRVPMTPDEYEYWGQGTQVTVSS
B2: Nb395 (VHH)
VHH: QVQLVESGGGLVQTGDSLRLSCAASLRTFKSYAMGWFRQAPGKEREAVATISAEGDSTYYDDSVKGRFTISRDNAANTVYLQMNSLKPEDTAVYYCAASRFPYGLRLLQRRESDYWGQGTQVTVSS
B3: Nb207 (VHH)
VHH: QVQLVESGGGLVQAGGSLRLSCAASGRTFSTAAMGWFRQAPGKERDFVAGIYWTVGSTYYADSAKGRFTISRDNAKNTVYLQMDSLKPEDTAVYYCAARRRGFTLAPTRANEYDYWGQGTQVTVSS

Target: Green Fluorescent Protein (GFP), biotinylated (biotin (EZ-Link NHS-PEG4-Biotin))
Assay: BLI

Binder | binding result
B1 | binds
B2 | binds
B3 | binds

Reference: doi:10.1101/2024.06.26.600780 (bioRxiv, 2024)
